From a protein production outcome set (Wang et al. 2014)

assay: label from the status in PepcDB records

Sequence | protein production
MDESVKSLMLPPPPPLLPPSQGYGSRKIDGDSITNKQIKKFWRQKQIIEEDHLYSAIKAAARVRARNLSDEDYKRFEESLDMEDLETEDHQGLKDWWTKSKYAYLNQPALGSADSLKRKRFSTYTPNCFSFKPCNPLYATSLNVF | failed
MDETPIFKIKKLTIAENDRSEYIRYAEKNMHDSIPAEEGTLLIGSGHDDAHGEDNYEIEVFRNKGAEDLHIAGSHADDFVETVNKIATKQKVIDLHPEVITTKAQRALNSYADNFVMRLIKVEVKDADAEKFSHAVKKEMTTSMASEPGMEIMMSGTNIDNPNEWYFIEVYANDEAYDIHVKTPHYKEYIEETDGMVKSRDVKTLVRDTLATQGAIVLD | not failed
MDFDLSEEQRLLKESVEGLLKGSYDFDSRKKYAKEKGGWSRAVWGKFAEQGLLGLPFSEEDGGFGAGAVETMIVMEALGHSLVLEPYLPTVVIGGGFLRRAGSAAQKAAHLPGIIDGSKTFAFAQLEKNSRWDLGDVSTTAKKSGDGWVIDGEKFVVLNGEAADTLIVTARTKGGQRDRTGVGVFLVPADAKGITRKGYPTQDGLHAADITFTGVQVGADAAIGDPENALELIEAVVDDARTALCAEAVGLMDESLTTTVEYIKTRKQFGVPIGSFQVLQHRAADMFVATEQARSMAMFATMAAEFDDAKERAGAIAAAKVQIGKSGKFVGQQSIQLHGGIGMTMEAKIGHYFKRLTMIEQTFGDTDHHLARVSAGGGLI | not failed
MDFFFVEYRDPLVGLIILTILVFVVAVANYIWKIFANKDEEQKLEKFIKKFEMDNAHKELLRNSSLSFGNLSFLAEIFTKSGEFEKATQIYLIALEKCKDKQEREFIFLSLAKVYFKAGFLERAKEVLLQALKLRPRNIQALKLLKIVYLKLRSYKENLELLECLFELNEDVQKERDFIKALELCTFNITDEEKKKKLLEFKIEDNPMLGRLVFEKYHMFLGQNFFDICDLLYRENEAFNLENQDFLEFFYALGKISKHDDTHQFVFKNSNFKMLKILKDNSFNAGLEFSYRCSECKNVMPLFFYHCPVCYEFNTCKIIYEVKNNETH | failed
MDFFTDQVKKKFSDKKPESSDPEPNHNKNKPGHTEPTTHKPGHGEPTTHKPVSNTDPTTHRPATNAELMASAKIVAEAAQAAARHESDKLDKAKVAGATADILDAASRYGKLDEKSGVGQYLEKAEQYLHKYETSHSHSSTGGTGSHGNVGGHGGGAGAPAAKKEDEKSGGGHGFGDYAKMAQGFMK | failed
MDFPQHSQHVLEQLNQQRQLGLLCDCTFVVDGVHFKAHKAVLAACSEYFKMLFVDQKDVVHLDISNAAGLGQVLEFMYTAKLSLSPENVDDVLAVATFLQMQDIITACHALKSLAEPATSPGGNAEALATEGGDKRAKEEKVATSTLSRLEQAGRSTPIGPSRDLKEER | failed
MDFRALALSLLLWLVPLWACANDQLDKLTQQVYQYPTKALAQITELEKQQQTDNTSNIDKLRLSILKCQNLLQLGENEAAINLAQMGEAHAKQLKLDQARPYFFNCQADAYLNYDNIQDALPLLDSAITLARRYQQPQALIDALRLRGQLDTNTDNFSSAIEDLRIAIDIYPDIHTQTQNWIWPPEAVGSPHNS | failed
MDFSDLDYSDAGDSGWTMYLGHSSSVSLHHFDYHNGETKQEHDEDSSMVSDASSGPPYYCEETVHEDHLQQNTQYWCKSKSKNKNKNKKKVHEEQGYSERFNSSFDDTASSLEKVNSGFLQQAFPVDKLALDNQGGDNQRKRRG | failed
MDFSLTEEQELLLASIRELITSNFPEEYFRTCDQTGTYPKEFMQALAENGISMLGVPEEFGGIPADYVTQMLALMEISKCGAPAFLITNGQCIHSMRRFGSAEQLRKTAESTLATGDPAYALALTEPGAGSDNNSATTTWTRKNGKVYLNGQKTFITGAKEYPYMLVLARDTEPKDPKKAFTLWWVDSNKPGIKINPLHKIGWHMLSTCEVYLDNVEVDESDRVGEEGMGFLNVMYNFEMERLINAARSTGFAECAFEDAARYANQRIAFGKPIGHNQMIQEKLALMAIKIENMRNMVLKVAWQADREESLRTSAALAKLYCARTAMEVIDDAIQIMGGLGYTDEARVSRFWRDVRCERIGGGTDEIMIYVAGRQILKDYQNK | failed
MDGEIDADELRSKLDEETVRVVDIRSPGAFERGHIPESENVPFPSLVDEVERFEGDDEVVTVCPKGKSSVQAARLIASYEGFDGDVVSFAPGLNGWDGPLERAEDEETPADTAAADRDSDEGPAAPF | failed
MDGRPLNRTTRAVAMIAVTIPAHNEQALIGPCLQSIRVAAQHPALQGEAVEIHVALDRCTDQTGVIARAHGAITQEVCGGVGVARAAAASAAIARGAHWLACTDADTRVPPDWLMAQLACAADAFCGVVEVTDWRDHLSQTRAAFLASEIRHDGHPHVHGANLGMRTSAYLAAGGFSNASSSEDVALVAALEQAGMRIARLASPVVNTSARRSARASGGFADYLLRLEAALLAASPSLGLEHHHHHH | failed
MDGSFVQHSVRVLQELNKQREKGQYCDATLDVGGLVFKAHWSVLACCSHFFQRIYGDGTGGSVVLPAGFAEIFGLLLDFFYTGHLALTSGNRDQVLLAAKELRVPEAVELCQSFQPQTSVGQAQSGLGQPASQDVKSHLKEPTDLDEEEVFKTLSLASVDQEPRDTEQPQLGTPAQSSTAFLCGKLTQALKPSPSEDKESEDCKEPPRPFEAGGAPLQGESNEWEVVVQVEDDRDGDYVSEPETVLTRRKSKVIRKPCAAEPALGAGSLTAEPTDSRKGAAVPVECPTCHKKFLSKYYLKVHNRKHTGEKPFECPKCGKCYFRKENLLEHEARNCMNRSEQVFTCSVCQETFRRRMELRLHMVSHTGEMPYKCSSCSQQFMQKKDLQSHMIKLHGAPKPHAVSASQGWGSGGSGTAQSCPHLDVLPLPVSPTCSAPLVPSASCLGRSYSCTRLLSIVEKSSLCVRNAGTGPRAATGCRCTSRPSTGMKGLMSVSSAAMPSPRRPTSTCTCARTPARSLSSATSVGRPSAPKFGQAQPHPHGREAFQL | not failed
MDGVLKGFFVVSIVLLIGYILGKTKALGPEGSKVLSTLTFMVGLPCLMFSAIASRHINDVLSATGLISVVTAVAVMLVFTVAGTIARWGVRRTTIGALSVGIVNSTNLGVPLSLYILGSATYVTPIMLFQLAIVTPIALTILDLTDPAGKKVSVWRTLSIPFRNPVTVAAILGVLVSALGIQLPSLVLDPLALVAQLAVPLMLIIFGMSLHGLSVRPGIDDRVPTTIAVILKSAIQPVLAWVLAAFVFQLDPFSTFVVTACAILPTGQNVVLYSVRYGVGQGIAQSTAVFTSILAVPLLLGAAWLFG | failed
MDGYNIFIVLLAVYIAGLVAIGWYFNKKQKSVTDFWLAGRRIGPSALGFSAAASWLTAGGILAVIGYYMLQGMGSIWAFVAPNILALLIIALLVGKIKNLPAITQPELLEQRYGSAVRWPIALIITVVMILFAVADVTGFSLVLQVFYGVDPLYAAAIVAIAVSLYVTMGGLSAVVWTDVVQFAFLSIFTIAMAFAAVGTVADGGLNTPAISSSELFGNVSYDWWNPLSIGIPMVLIFVFAIIPGWITEQDPWQKVWAAKDAKSARLGMVFGSLMITVVFAACAVIAIAFNNIYPDIAGMGFPAGMAQAEPALLAFVSERFVSAPLIVALSAIGLAAASMSCADTFATSGASCISRDIFQRYIKPDATMKEMLVVNRISVLIIVLAATAGSFVIPNIIDAIHIATFIASASYFFPLMGGLYWKRATKEGAFAGMVVGFVVQVTLVSLDLIKTPPMAANYLESVHPALMSHGVIVGMGLSAIAFFGVSLMTKPSSRINLAPFFEEEAEELAHYEAREIDEKDPTYGAFLKNVDEKVAGERAHLQLNLRASGALSWHELVEKLKSSSPAWVTPTGLDSVYRLTHGDMLACVTVTRGSEERDIWLKAEPRLETVGRQKKELFTAYEELKKVLGQKGVNLDFY | failed
MDGYTGSHVVRCALRLAPLVFVRPGELRKAEWKDIDLDGGEWRYTVTKTNTPHIVPLSTQAVEILKELQALTGRSRFVFPGARTNGRPMSDNAILAALRRMGIDKEEMSGHGFRAMARTILDEVLGVRPDFIEHQLAHSVRDPLEHHHHHH | failed
MDIKDLMKKWSEQAENMRMFHMQELKENGSEWKKLLQENLKDCKGKKVLDAGCGTGFLAILLAQDGWEVTAIDSSEAMLEEGKKTAEELGLSDKITFLLKDAHSTDFPEHLFDAVVSRHASWLFTAPETVYKEWKRILKPGGIMLNIDANWLKPIWNTDEFEKFKSYEAELVKQYGEFRDYYHDEQMINILKKFPLAYINRPEWDEKMLKKIDFKEIASRLLSKEKYMDAFQAARYKTIPMFVIKAKNIE | failed
MDIKKIAQDDKSLGIDESNKDLFQDGILNIALFGVDSREHDNVGRSDSIIIATIDTKHDKIKLTSLMRDSYVEVDGHGKTKLTHAYAYGGPTLALKTINENFGLDIKDYVTVNFDNLAEIIDDLGGVPINIKPYEVKEVNNYAKNVAEIAGREYTPVSEGEQVLNGAQAVGYSRIRYVGDGDYERTERQRNVLDAIIKKLSALKPSEYPETIKKLLPYVETNLTPSKILSIATSVASTGIPPVENMRFPLDGYCKGEMIDGVWYLTFDEAKTKEQIQDYIYKDVNPKLEHHHHHH | failed
MDILKLLMVAILIGLTAFFVAVEFAIIKVRSSRIDQLVSEKRRGALAAKKVTSNLDEYLSACQLGITITALGLGWLGEPTIKHLLEPLFLKLNLSPAIASTVSFIIAFAVITFLHVVIGELAPKTFAIQRAEQVSLLLSKPLIYFYRIMYPFIWALNGSARLVTGLFGLHPASEHEVAHSEEELRLILSESYESGEINQREFKYVNNIFEFDNRVAKEIMVPRTEVIGLYEDEPFETHIKIIAQEKYTRYPVFGEDKDEIIGMVNVKDLFIRYIDGNRDEECSITPYTRPVIEVLENIPIHDLLLQMQRKHIPLAVLYDEYGGTAGIVTLEDILEEIVGEIRDEYDEDEHPPIEHISEGCKIVEGKVLISEVNDLFGIHLIADDVDTIGGWIMVQKQIVAEGDIIEKHGFSFKVLEKDMHQIKRVEIKKVEE | failed
MDIMNVYKRGNTFQYDFYFKGKRYRKSGYLTKRDAQIAMNIKLNDLLEGYDTDNNLTFVDFYYRWLEITKLDIINDTSYKRYITAIKAFKDCFGNKLISDIDSLSYQKFLKDYGRGHFLNNGQLRPRTSNTVSKMNNCLKQAFESAVEQGYIKKNPAKNAKPFGLKSSQSIDDKFMSITQMKNLIHYVKKNDALSHLCIYILIITGSRFKPVQHLRYEDLNFKKSCIHLNDTKNKYSKRNVKVRIKDLEYIQSVINKHPINQNGYIFHNFINFISYSAINDVLVRFCLKYKYDKYTLKSLRHTHCSYLLAKGISIQYISKRLGHADIHTTLKIYSHLIKEFEDSENSLIEKNLNDLFSD | failed
MDKHNEEHIYVAIDLKSFYASVECRERGKDALTTNLVVADPTRTEKTICLAVSPALKAYGIPGRARLFEVVQRVKEVNKLRLSKLMASGHAAGTVERRKKYVTEIDIAENDITESTMAGFDYASYNANLLDAHPEYELTYIVAPPRMALYMDYSTRIYNIYLKYIAPEDISVYSIDEVFMDVTHYLRTYHMTARELASKMIDDVLKDTGITATCGIGTNLYLCKIAMDIMAKHAMPDERGVRIAELNENSYRRKLWDHRPITDFWRVGAGYAKKLEAAGMYTMGDVARCSTGGSNDFYNEEKLYKMFGINAELLIDHAWGYEPVTIADIKAYRPQTNSISSGQVLQEPYDYEKTKLIVREMTDLLVLDLVDKRLVTDQIVLTIGYDIANLSNKADSCLGNNYDHAVNNKGRDSIGGKKGTHRDYTGEITIDRYGRKVPKHAHGTANLGRYTSSTRIIMDAVMELYDRIIDPSLLTRRITVVANRVCDESKVQESEQFEQLDLFTDYQARAKEKKKEDEALSKERKLQEAMISVKKKYGKNAMLKGMNLEEGATTISRNNQIGGHKA | failed
MDKIGMTNQITGVISKFDTNIRTIVLNAKDGIFTCNLMIFVKNTDKLTTLMDKLRKVQGLEHHHHHH | failed
